Data taken from patent EP4613780A1 (Adlai Nortye Biopharma Co., Ltd., dated 2025).

How the values were obtained:
[1] = target: T1, human CD28 protein (Acro, CD8-H525a) (human, UniProt P10747 19-152); assay: ELISA, coated human CD28
T1 construct: coated on the ELISA plate; also called human CD28 antigen

[2] = target: T2, human CTLA4 protein (Acro, CT4-H52H9) (human, UniProt P16410 36-161); assay: ELISA, coated human CTLA4
T2 construct: coated on the ELISA plate; also called human CTLA4 antigen
T2 sequence (looked up): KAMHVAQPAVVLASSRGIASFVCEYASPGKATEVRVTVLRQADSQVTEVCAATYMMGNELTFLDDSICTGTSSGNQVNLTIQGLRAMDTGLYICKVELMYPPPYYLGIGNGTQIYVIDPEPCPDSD

[3] = target: PD-L1 on TCR activator PD-L1-CHO cells (BPS bioscience) (UniProt Q9NZQ7 19-290, limits assumed); assay: cell-based or functional assay
PD-L1 on TCR activator PD-L1-CHO cells (BPS bioscience), sequence (Q9NZQ7 19-290 limits assumed): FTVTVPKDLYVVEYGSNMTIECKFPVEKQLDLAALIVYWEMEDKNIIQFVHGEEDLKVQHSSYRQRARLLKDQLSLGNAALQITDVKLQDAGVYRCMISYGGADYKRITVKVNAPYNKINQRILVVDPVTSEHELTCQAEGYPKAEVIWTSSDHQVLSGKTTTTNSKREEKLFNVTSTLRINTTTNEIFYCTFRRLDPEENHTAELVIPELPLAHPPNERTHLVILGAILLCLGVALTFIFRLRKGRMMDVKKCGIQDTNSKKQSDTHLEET

[4] = target: T3, human PD-L1 protein (Acro, PD1-H5258) (human, UniProt Q9NZQ7 19-238); assay: ELISA, coated human PD-L1
T3 construct: coated on the ELISA plate; also called human PDL1 antigen
T3 sequence (Q9NZQ7 19-238 limits assumed): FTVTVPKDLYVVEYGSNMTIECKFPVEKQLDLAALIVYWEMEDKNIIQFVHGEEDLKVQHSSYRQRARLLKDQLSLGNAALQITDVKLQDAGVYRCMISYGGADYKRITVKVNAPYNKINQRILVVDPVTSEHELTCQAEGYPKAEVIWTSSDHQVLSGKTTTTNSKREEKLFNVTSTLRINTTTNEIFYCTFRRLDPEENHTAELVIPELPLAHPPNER

[5] = target: T4, hCTLA-4 (Octet R8 analyte) (human, UniProt P16410 36-161, limits assumed); assay: BLI Octet R8, Protein A probe
T4 sequence (looked up): T2 sequence (looked up)

[6] = target: hPD-L1 (Octet R8 analyte) (human, UniProt Q9NZQ7 19-238, limits assumed); assay: BLI Octet R8, Protein A probe
hPD-L1 (Octet R8 analyte), sequence (Q9NZQ7 19-238 limits assumed): as above

hCD28 (Octet R8 analyte) = hCD28 (Octet R8 analyte) (human, UniProt P10747 19-152, limits assumed); assay: BLI Octet R8, Protein A probe
hCD28 (Octet R8 analyte), sequence (P10747 19-152 limits assumed): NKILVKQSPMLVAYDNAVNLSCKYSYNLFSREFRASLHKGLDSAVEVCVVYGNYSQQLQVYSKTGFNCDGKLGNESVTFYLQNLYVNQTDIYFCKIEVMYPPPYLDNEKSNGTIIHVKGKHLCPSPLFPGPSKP

T1 sequence (P10747 19-152 limits assumed): as above

B1: antibody Abs-16 (sugemalimab) (antibody, human IgG4 S228P, lambda, V domains shown)
VH: EVQLLESGGGLVQPGGSLRLSCAASGFTFSSYAMSWVRQAPGKGLEWVSGISGSGGFTYYADSVKGRFTISRDNSKNTLYLQMNSLRAEDTAVYYCAKPPRGYNYGPFDYWGQGTLVTVSS
VL: SYVLTQPPSVSVAPGQTARITCGGNNIGSKSVHWYQQKPGQAPVLVVYDDSDRPSGIPERFSGSNSGNTATLTISRVEAGDEADYYCQVWDSSSDHVVFGGGTKLTVLG
notes: anti-PD-L1 control antibody; also called Sugemalimab (CS1001)
[1]
  binding result: no binding
[2]
  binding result: no binding
[3]
  Jurkat-NFAT-Luc/CHO-PDL1 EC50: 90 pM
  Top induction relative to 10nM sugemalimab: 100%
[4]
  EC50: 76.7 pM
[5]
  binding result: no binding (tested: 50nM)
[6]
  Kd: 581 pM
hCD28 (Octet R8 analyte)
  binding result: no binding (tested: 50nM)
